Results reported in article PMC4975481, “Importance of Hypervariable Region 2 for Stability and Affinity of a Shark Single-Domain Antibody Specific for Ebola Virus Nucleoprotein” (PLoS ONE, 2016).

Molecular target: T1, Ebola virus Viral Protein 40 (Ebola virus (Zaire ebolavirus), strain …, UniProt Q05128)
T1 construct: also called VP40; VP 40; source: bought: IBT Bioservices
Assay: SPR
Details: both partners purified

T1 sequence (Q05128 whole entry): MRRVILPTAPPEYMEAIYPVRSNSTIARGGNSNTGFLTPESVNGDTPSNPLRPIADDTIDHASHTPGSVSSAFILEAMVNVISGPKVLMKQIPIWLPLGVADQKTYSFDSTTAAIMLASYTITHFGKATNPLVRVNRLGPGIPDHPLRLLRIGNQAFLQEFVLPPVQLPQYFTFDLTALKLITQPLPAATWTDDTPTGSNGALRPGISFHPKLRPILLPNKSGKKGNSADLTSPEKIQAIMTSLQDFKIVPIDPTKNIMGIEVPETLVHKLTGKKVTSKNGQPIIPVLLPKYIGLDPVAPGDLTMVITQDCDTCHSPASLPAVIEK

B1: shark096 (VHH)
VHH: RVDQTPRSVTKETGESLTINCVLRDASYAVGSTCWYRKKSGSTNEESISKGGRYVETVNSGSKSFSLRINDLTVEDGGTYRCGVSTYNWCGVRGLGCVHGACGDGTAVTVN
notes: also called unfused sdAb portion of DSTL096; parental sdAb
Question: Does B1 bind?
Answer: no binding
